Test results from patent publication US20250066499A1 (SUNSHINE GUOJIAN PHARMACEUTICAL SHANGHAI, published 2025).

Experiments:
Assay in all cases: ELISA; decline multiple of Top against CD73-ND
CD73-ND-L133A = biological target: T1, CD73-ND-L133A (human, UniProt P21589 27-317)
T1 construct: Alanine mutant of CD73-ND
T1 sequence: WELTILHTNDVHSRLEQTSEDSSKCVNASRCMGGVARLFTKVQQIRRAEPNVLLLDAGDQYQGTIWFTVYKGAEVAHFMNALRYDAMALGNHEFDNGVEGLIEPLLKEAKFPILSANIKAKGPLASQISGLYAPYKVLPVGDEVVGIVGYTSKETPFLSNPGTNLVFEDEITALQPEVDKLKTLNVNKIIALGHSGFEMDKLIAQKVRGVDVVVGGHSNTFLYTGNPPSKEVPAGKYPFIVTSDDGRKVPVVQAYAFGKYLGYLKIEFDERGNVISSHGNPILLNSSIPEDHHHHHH
Description: (§1) The ELISA plates were coated with SA protein diluted to 1.5 μg/mL in coating buffer (50 mM carbonate coating buffer, pH 9.6) and incubated overnight at 4° C. The supernatant was discarded, and the plates were washed three times with PBST. Then, 5% skimmed milk powder prepared with PBS was added for blocking and the plates were incubated for 2 h at 37° C. After washing the plates once with PBST, CD73-biotin protein (prepared by biotinylating CD73-His protein according to the EZ-Link NHS-Biotin Reagent instructions) was diluted to 0.5 μg/mL and added at 100 μL/well for incubation at room temperature for 1 h. The plates were washed three times with PBST, and the prepared murine-derived monoclonal antibodies against human CD73 were serially diluted with 1% BSA buffer prepared with PBST and added to the ELISA plates at 100 μl/well. The plates were incubated at 37° C. for 1 h. After washing the plates three times with PBST, HRP-labeled goat anti-mouse IgG secondary antibody was added and the plates were incubated for 30 min at 37° C. After washing the plates three times with PBST, the residual droplets were patted dry on absorbent paper as much as possible. Then, 100 μl of TMB color developing solution was added to each well, and the plates were incubated in the dark at room temperature for 5 min for color development. Subsequently, 50 μl of 2M H₂SO₄ stop solution was added to each well to terminate the substrate reaction. The OD values were read at 450 nm using a multimode microplate reader to analyze the binding ability of the tested antibodies to the target antigen human CD73-His.
(§2) Referring to the experimental method in Example 3, the affinity of 48A11-HuV33 for various mutant proteins of CD73-ND was determined. The SA protein was diluted to 1 μg/mL for coating the ELISA plates, and the biotinylated CD73 protein (CD73-biotin) was used at a concentration of 0.1 μg/mL.

CD73-ND-Y135A = biological target: T2, CD73-ND-Y135A (human, UniProt P21589 27-317)
T2 construct: Alanine mutant of CD73-ND
T2 sequence: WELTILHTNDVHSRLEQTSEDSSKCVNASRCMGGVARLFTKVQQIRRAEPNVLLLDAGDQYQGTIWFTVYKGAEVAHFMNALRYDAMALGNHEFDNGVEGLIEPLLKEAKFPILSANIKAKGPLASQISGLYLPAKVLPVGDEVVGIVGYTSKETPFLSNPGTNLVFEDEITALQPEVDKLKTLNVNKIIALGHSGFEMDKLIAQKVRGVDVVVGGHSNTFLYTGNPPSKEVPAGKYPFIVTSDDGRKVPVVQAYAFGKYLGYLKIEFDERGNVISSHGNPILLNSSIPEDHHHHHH
Description: as §1, §2

CD73-ND-L138A = biological target: T3, CD73-ND-L138A (human, UniProt P21589 27-317)
T3 construct: Alanine mutant of CD73-ND
T3 sequence: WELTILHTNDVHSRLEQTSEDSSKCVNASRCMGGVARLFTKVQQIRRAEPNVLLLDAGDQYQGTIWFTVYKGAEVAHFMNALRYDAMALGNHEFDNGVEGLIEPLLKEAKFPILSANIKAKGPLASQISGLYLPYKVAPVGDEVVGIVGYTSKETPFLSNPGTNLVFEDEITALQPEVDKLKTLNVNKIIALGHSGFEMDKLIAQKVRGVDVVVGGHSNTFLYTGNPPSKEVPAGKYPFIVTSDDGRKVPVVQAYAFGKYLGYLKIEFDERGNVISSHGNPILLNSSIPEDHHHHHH
Description: as §1, §2

CD73-ND-his = biological target: T4, CD73-ND-his (human, UniProt P21589 27-317)
T4 construct: Biotinylated and captured on streptavidin in the ELISA
T4 sequence: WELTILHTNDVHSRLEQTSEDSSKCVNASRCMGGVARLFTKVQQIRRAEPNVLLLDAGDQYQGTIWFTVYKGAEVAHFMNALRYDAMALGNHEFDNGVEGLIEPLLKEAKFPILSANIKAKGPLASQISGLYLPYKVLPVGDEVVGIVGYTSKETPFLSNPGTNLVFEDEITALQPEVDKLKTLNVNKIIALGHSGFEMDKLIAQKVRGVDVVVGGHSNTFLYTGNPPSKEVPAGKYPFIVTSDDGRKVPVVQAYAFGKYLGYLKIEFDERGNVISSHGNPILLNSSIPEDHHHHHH
Description: as §1, §2

CD73-ND-V186A = biological target: T5, CD73-ND-V186A (human, UniProt P21589 27-317)
T5 construct: Alanine mutant of CD73-ND
T5 sequence: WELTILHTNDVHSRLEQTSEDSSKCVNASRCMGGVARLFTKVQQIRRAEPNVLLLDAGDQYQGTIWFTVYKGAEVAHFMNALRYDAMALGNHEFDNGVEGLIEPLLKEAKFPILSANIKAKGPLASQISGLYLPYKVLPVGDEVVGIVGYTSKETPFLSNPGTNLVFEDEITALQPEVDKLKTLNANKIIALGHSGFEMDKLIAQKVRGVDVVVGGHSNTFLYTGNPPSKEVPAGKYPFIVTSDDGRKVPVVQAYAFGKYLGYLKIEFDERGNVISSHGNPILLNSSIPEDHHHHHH
Description: as §1, §2

CD73-ND-N187A = biological target: T6, CD73-ND-N187A (human, UniProt P21589 27-317)
T6 construct: Alanine mutant of CD73-ND
T6 sequence: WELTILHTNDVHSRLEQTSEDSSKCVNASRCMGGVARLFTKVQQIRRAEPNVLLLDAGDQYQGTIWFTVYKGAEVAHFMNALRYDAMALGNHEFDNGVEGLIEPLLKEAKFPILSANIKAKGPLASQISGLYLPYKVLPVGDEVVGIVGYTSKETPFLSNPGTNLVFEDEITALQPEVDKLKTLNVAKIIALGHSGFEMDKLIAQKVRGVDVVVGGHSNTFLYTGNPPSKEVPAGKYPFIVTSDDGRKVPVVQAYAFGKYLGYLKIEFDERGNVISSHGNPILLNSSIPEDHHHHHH
Description: as §1, §2

B1: 48A11-HuV33 (antibody, human IgG4, V domains shown)
VH: QVQLVQSGAEVKKPGASVKVSCKASGYTFTSYWMHWVRQAPGQGLEWIGEINPSIGRTNYNEKFKSRVTLTRDTSTSTAYMELSSLRSEDTAVYYCARRVYGTMDYWGQGTLVTVSS
VL: DIQMTQSPSSLSASVGDRVTITCKASQDINSYLSWFQQKPGKSPKLLIYRANIWVDGVPSRFSGSGSGQDYTFTISSLQPEDIATYYCLQYDELYTFGQGTKVEIK
notes: Humanized
Ratio(Top) (CD73-ND-L133A): 2.3 fold
Ratio(Top) (CD73-ND-Y135A): 1.1 fold
Ratio(Top) (CD73-ND-L138A): 1.1 fold
Ratio(Top) (CD73-ND-his): 1 fold
Ratio(Top) (CD73-ND-V186A): 1.2 fold
Ratio(Top) (CD73-ND-N187A): 1.1 fold
